No end group written: not given here.
T1: human angiopoietin-2 protein (human, UniProt O15123 19-496)
T1 construct: bought; also called Ang-2; Ang2
T1 sequence (looked up): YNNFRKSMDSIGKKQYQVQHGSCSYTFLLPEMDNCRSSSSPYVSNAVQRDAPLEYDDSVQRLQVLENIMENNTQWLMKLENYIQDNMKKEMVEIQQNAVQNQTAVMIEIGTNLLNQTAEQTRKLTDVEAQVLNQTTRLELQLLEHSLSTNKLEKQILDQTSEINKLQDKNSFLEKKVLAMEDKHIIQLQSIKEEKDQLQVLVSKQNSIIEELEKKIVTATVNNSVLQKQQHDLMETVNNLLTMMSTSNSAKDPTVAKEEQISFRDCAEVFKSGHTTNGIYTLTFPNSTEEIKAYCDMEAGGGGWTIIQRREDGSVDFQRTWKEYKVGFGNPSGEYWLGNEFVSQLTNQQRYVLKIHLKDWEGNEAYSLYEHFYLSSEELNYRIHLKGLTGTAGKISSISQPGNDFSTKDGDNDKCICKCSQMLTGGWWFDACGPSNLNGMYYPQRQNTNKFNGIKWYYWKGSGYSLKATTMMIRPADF


What was measured:
[1] = target: T1, human angiopoietin-2 protein; test: reverse competitive ELISA, coated Tie-2-Fc, 0.83 nM Ang-2; peptide printed without linker, column headed P
Method: For reverse competition ELISA, human Tie-2-Fc, angiopoietin-2 protein, biotinylated anti-human Ang-2 antibody, and streptavidin HRP (R&D Systems) and TMB substrate from Pierce were used.
High-binding half-well plates were coated with Tie-2-Fc (50 ng/well) in 50 μl PBS and incubated at 4° C. overnight. Plates were washed three times with washing buffer (0.1% Tween 20, PBS, pH 7.4) and blocked with Superblock, 150 μl/well at RT for 1 hour. Plates were washed three times. Following washing, 50 μl of an Ang-2 binding peptide compound (50 nM, 5× serial dilution) in the presence of 50 ng/ml (0.83 nM) Ang-2 in Superblock were added and incubated at RT for 1 hour. Plates were washed 3 times, 50 μl of 1 μg/well biotinylated anti-Ang-2 detection antibody in Superblock was added and incubated at RT for 2 hours. Plates were washed 3 times, and 50 μl of streptavidin HRP (1:200 dilution in Superblock) was added at RT for 20 minutes. Plates were washed 3 times, and 50 μl (25 μl TMB+25 μl H₂O₂) substrate solution was added and incubated for 20-30 minutes. Color development was stopped with 25 μl of 2 M H₂SO₄. OD450 nm with a correction wavelength of 540 nm was measured.

[2] = target: T1, human angiopoietin-2 protein; test: competitive ELISA, coated Ang-2, 0.25 nM hTie-2-Fc; peptide alone
Method: For competitive ELISA, human angiopoietin-2 protein and Tie-2-Fc (R&D Systems) were reconstituted without carrier protein. Mouse anti-human Tie-2 (Pharmingen) was used as the primary antibody and goat anti-mouse-IgG1-HRP (Pierce) was used as the secondary antibody. TMB substrate from Pierce was used.
High-binding half-well plates were coated with Ang-2 (100 ng/well) in 50 μl PBS and incubated at 4° C. overnight. Plates were washed three times with washing buffer (0.1% Tween 20, PBS, pH 7.4) and blocked with Superblock (Scytek), 100 μl/well at room temperature (“RT”) for 1 hour. After removing the blocking solution, 50 μl of an Ang-2 binding peptide compound (1 uM and 5× serial dilution) in the presence of 0.25 nM hTie-2-Fc using Superblock as diluent was added and incubated at RT for 2 hours. Plates were washed 3 times with washing buffer. Then, 50 ul of 0.1 ug/ml mouse anti-human Tie-2 diluted in Superblock added and incubated at RT for 1 hour. Following incubation, 50 ul of 1:5,000 dilution of goat anti-mouse IgG-HRP in Superblock was then added and incubated at RT for one hour. After washing 3 times, 50 μl (25 μl TMB+25 μl H₂O₂) was added, and incubated for 3-5 minutes. Color development was monitored and stopped with 25 μl of 2 M H₂SO₄. OD450 nm with a correction wavelength of 540 nm was measured.

IC50 [1] [nM] | IC50 [2] [nM] | Binder
36.4 | 25.8 | QKYQPLDELDKTLYDQFMLQQG-NH2 (not fully specified (N-terminus); also: N-term acyl cap, acyl not given here, not conjugated to linker or antibody) [Compound 21: Ang-2 binding peptide alone]
14.4 |  | QXYQPLDELDKTLYDQFMLQQG (not fully specified; N-term acyl cap; C-term NH2 cap; AcK at 2, not conjugated to linker or antibody) [Compound 22: Ang-2 binding peptide alone]

Reference: patent publication US20080166364A1 (COVX TECHNOLOGY IRELAND, published 2008)
